Target: wasl_bovin WASL (UniProt Q95107)
Sequence (Q95107 whole entry): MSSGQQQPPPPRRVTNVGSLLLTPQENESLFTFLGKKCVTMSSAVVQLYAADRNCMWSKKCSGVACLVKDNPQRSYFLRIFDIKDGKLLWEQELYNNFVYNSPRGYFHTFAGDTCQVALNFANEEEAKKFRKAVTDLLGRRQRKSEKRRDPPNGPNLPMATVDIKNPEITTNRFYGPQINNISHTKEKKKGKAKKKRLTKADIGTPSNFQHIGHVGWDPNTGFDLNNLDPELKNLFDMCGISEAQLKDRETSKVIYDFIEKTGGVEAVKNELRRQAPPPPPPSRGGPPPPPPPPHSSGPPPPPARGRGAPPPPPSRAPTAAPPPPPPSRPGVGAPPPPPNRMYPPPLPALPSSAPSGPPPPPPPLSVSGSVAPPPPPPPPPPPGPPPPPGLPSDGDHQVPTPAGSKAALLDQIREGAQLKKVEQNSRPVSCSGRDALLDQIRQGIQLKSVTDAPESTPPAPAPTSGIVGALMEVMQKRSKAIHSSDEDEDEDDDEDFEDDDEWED

Sequence of Src substrate cortactin (Mus musculus), Q60598 Y466D;Y482D (Q60598 whole entry Y466D/Y482D): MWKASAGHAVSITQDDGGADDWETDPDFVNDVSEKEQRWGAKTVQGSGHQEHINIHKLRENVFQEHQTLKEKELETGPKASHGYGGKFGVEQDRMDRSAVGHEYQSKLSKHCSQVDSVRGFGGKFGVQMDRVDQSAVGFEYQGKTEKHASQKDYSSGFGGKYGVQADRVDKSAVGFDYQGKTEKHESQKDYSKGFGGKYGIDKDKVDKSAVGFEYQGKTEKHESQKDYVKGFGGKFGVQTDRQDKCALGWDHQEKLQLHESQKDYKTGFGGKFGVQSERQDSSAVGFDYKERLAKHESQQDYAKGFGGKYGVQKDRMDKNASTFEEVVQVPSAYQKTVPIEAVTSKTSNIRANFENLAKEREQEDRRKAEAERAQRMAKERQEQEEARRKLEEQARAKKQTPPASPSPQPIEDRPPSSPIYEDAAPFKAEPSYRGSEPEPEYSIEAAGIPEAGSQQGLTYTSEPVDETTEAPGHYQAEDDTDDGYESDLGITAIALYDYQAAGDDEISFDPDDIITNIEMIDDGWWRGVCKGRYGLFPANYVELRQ
Sequence of Src substrate cortactin (Mus musculus), Q60598 S405D;S418D (Q60598 whole entry S405D/S418D): as the sequence (Q60598 whole entry Y466D/Y482D) above, with S405D, S418D, D466Y, D482Y counted along it
Sequence of Src substrate cortactin (Mus musculus), Q60598 S405D;P416D;Y466D;Y482D (Q60598 whole entry S405D/P416D/Y466D/Y482D): as the sequence (Q60598 whole entry Y466D/Y482D) above, with S405D, P416D counted along it
Sequence of Src substrate cortactin (Mus musculus), Q60598 W525K (Q60598 whole entry W525K): as the sequence (Q60598 whole entry Y466D/Y482D) above, with D466Y, D482Y, W525K counted along it

Row | effect of a mutation on the interaction | Substance
1 | decreasing interaction | Src substrate cortactin (Mus musculus), Q60598 S405D;P416D;Y466D;Y482D
2 | increasing interaction | Src substrate cortactin (Mus musculus), Q60598 S405D;S418D
3 | disrupting interaction | Src substrate cortactin (Mus musculus), Q60598 W525K
4 | decreasing interaction | Src substrate cortactin (Mus musculus), Q60598 Y466D;Y482D

Source: IntAct's records for PubMed 15169891
